In PMC4640189:
Several values for one entry are separate records, joined by “and”; a condition that tells them apart may be missing. Equal values may be shown once.

Molecular target: CARD-deleted NLRC4 (mouse) (UniProt Q3UP24)
Experiment: cryo-EM structure

CARD-deleted NLRC4 (from UniProt Q3UP24 1-1024) (domain or fragment)
blades of the disk (one of them taken to be NAIP2): 11 blades and 12 blades and 10 blades
